Where two headings read alike, the source gives them in different places.

Common to all, as to assay: SPR
In general terms: SPR reads the build-up and loss of mass on a sensor chip optically.

Test [1] has as its target T1, GCGR extracellular domain (human, UniProt P47871).
Test [2] deals with T1, GCGR extracellular domain. The source holds these as a separate data set.
The target in test [3] is T1, GCGR extracellular domain. This is another data set of the same source.
Test [4] concerns the target T1, GCGR extracellular domain. This is another data set of the same source.

T1 sequence (P47871 26-477): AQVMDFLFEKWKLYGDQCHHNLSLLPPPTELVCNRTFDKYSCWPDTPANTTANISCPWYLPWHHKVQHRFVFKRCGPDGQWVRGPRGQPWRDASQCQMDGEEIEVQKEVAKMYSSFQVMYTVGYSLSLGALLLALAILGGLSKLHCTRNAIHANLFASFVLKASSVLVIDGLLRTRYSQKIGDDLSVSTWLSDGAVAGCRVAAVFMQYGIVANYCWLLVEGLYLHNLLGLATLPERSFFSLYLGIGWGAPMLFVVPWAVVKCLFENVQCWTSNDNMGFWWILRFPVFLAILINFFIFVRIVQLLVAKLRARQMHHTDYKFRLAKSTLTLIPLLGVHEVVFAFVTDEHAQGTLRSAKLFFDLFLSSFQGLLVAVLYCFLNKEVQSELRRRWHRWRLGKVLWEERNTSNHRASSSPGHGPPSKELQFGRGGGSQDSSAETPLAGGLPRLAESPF

B1: VH Y30H (antibody, V domains shown)
VH: EVQLVESGGGLVQPGGSLRLSCAASGFNIHYNYIHWVRQAPGKGLEWVAEFSPYSGSTYYADSVKGRFTISADTSKNTAYLQMNSLRAEDTAVYYCARSAAIVDWYDYFKGFDYWGQGTLVTVSS
VL: DIQMTQSPSSLSASVGDRVTITCRASQSVSSAVAWYQQKPGKAPKLLIYSASSLYSGVPSRFSGSRSGTDFTLTISSLQPEDFATYYCQQYGSYLYTFGQGTKVEIK
Regarding B1, the Kd in test [1] and in test [2] was 5.14 nM throughout.

B2: VH Y100bK (antibody, V domains shown)
VH: EVQLVESGGGLVQPGGSLRLSCAASGFNIYYNYIHWVRQAPGKGLEWVAEFSPYSGSTYYADSVKGRFTISADTSKNTAYLQMNSLRAEDTAVYYCARSAAIVDWKDYFKGFDYWGQGTLVTVSS
VL: DIQMTQSPSSLSASVGDRVTITCRASQSVSSAVAWYQQKPGKAPKLLIYSASSLYSGVPSRFSGSRSGTDFTLTISSLQPEDFATYYCQQYGSYLYTFGQGTKVEIK
On to B2, for which the Kd in test [1] and in test [2] was 7.75 nM each time.

B3: anti-GCGR IgG1 parent (antibody, V domains shown)
VH: EVQLVESGGGLVQPGGSLRLSCAASGFNIYYNYIHWVRQAPGKGLEWVAEFSPYSGSTYYADSVKGRFTISADTSKNTAYLQMNSLRAEDTAVYYCARSAAIVDWYDYFKGFDYWGQGTLVTVSS
VL: DIQMTQSPSSLSASVGDRVTITCRASQSVSSAVAWYQQKPGKAPKLLIYSASSLYSGVPSRFSGSRSGTDFTLTISSLQPEDFATYYCQQYGSYLYTFGQGTKVEIK
In the case of B3, the Kd (usually a measure of binding affinity in units of concentration) stood at 2.53 nM in test [1], 0.61 nM in test [3] and 2.53 nM in test [2].

B4: VH W100aF (antibody, V domains shown)
VH: EVQLVESGGGLVQPGGSLRLSCAASGFNIYYNYIHWVRQAPGKGLEWVAEFSPYSGSTYYADSVKGRFTISADTSKNTAYLQMNSLRAEDTAVYYCARSAAIVDFYDYFKGFDYWGQGTLVTVSS
VL: DIQMTQSPSSLSASVGDRVTITCRASQSVSSAVAWYQQKPGKAPKLLIYSASSLYSGVPSRFSGSRSGTDFTLTISSLQPEDFATYYCQQYGSYLYTFGQGTKVEIK
In the case of B4, the Kd in test [1] and in test [2] was 5.2 nM in each case.

B5: VH Y100bQ (antibody, V domains shown)
VH: EVQLVESGGGLVQPGGSLRLSCAASGFNIYYNYIHWVRQAPGKGLEWVAEFSPYSGSTYYADSVKGRFTISADTSKNTAYLQMNSLRAEDTAVYYCARSAAIVDWQDYFKGFDYWGQGTLVTVSS
VL: DIQMTQSPSSLSASVGDRVTITCRASQSVSSAVAWYQQKPGKAPKLLIYSASSLYSGVPSRFSGSRSGTDFTLTISSLQPEDFATYYCQQYGSYLYTFGQGTKVEIK
For the molecule B5, the Kd in test [1] and in test [2] was 6.08 nM in each case.

B6: VL Y94K (antibody, V domains shown)
VH: EVQLVESGGGLVQPGGSLRLSCAASGFNIYYNYIHWVRQAPGKGLEWVAEFSPYSGSTYYADSVKGRFTISADTSKNTAYLQMNSLRAEDTAVYYCARSAAIVDWYDYFKGFDYWGQGTLVTVSS
VL: DIQMTQSPSSLSASVGDRVTITCRASQSVSSAVAWYQQKPGKAPKLLIYSASSLYSGVPSRFSGSRSGTDFTLTISSLQPEDFATYYCQQYGSKLYTFGQGTKVEIK
Turning to B6, the Kd in test [1] and in test [2] was 1.6 nM each time.

B7: VH Y100bR (antibody, V domains shown)
VH: EVQLVESGGGLVQPGGSLRLSCAASGFNIYYNYIHWVRQAPGKGLEWVAEFSPYSGSTYYADSVKGRFTISADTSKNTAYLQMNSLRAEDTAVYYCARSAAIVDWRDYFKGFDYWGQGTLVTVSS
VL: DIQMTQSPSSLSASVGDRVTITCRASQSVSSAVAWYQQKPGKAPKLLIYSASSLYSGVPSRFSGSRSGTDFTLTISSLQPEDFATYYCQQYGSYLYTFGQGTKVEIK
On to B7, for which the Kd in test [1] and in test [2] was 7.08 nM each time.

B8: VH Y100bH (antibody, V domains shown)
VH: EVQLVESGGGLVQPGGSLRLSCAASGFNIYYNYIHWVRQAPGKGLEWVAEFSPYSGSTYYADSVKGRFTISADTSKNTAYLQMNSLRAEDTAVYYCARSAAIVDWHDYFKGFDYWGQGTLVTVSS
VL: DIQMTQSPSSLSASVGDRVTITCRASQSVSSAVAWYQQKPGKAPKLLIYSASSLYSGVPSRFSGSRSGTDFTLTISSLQPEDFATYYCQQYGSYLYTFGQGTKVEIK
Turning to B8, the Kd in test [1] and in test [2] was 2.9 nM each time.

B9: VH W100aV (antibody, V domains shown)
VH: EVQLVESGGGLVQPGGSLRLSCAASGFNIYYNYIHWVRQAPGKGLEWVAEFSPYSGSTYYADSVKGRFTISADTSKNTAYLQMNSLRAEDTAVYYCARSAAIVDVYDYFKGFDYWGQGTLVTVSS
VL: DIQMTQSPSSLSASVGDRVTITCRASQSVSSAVAWYQQKPGKAPKLLIYSASSLYSGVPSRFSGSRSGTDFTLTISSLQPEDFATYYCQQYGSYLYTFGQGTKVEIK
B9: the Kd in test [1] and in test [2] was 5.88 nM in each case.

B10: VH Y31A (antibody, V domains shown)
VH: EVQLVESGGGLVQPGGSLRLSCAASGFNIYANYIHWVRQAPGKGLEWVAEFSPYSGSTYYADSVKGRFTISADTSKNTAYLQMNSLRAEDTAVYYCARSAAIVDWYDYFKGFDYWGQGTLVTVSS
VL: DIQMTQSPSSLSASVGDRVTITCRASQSVSSAVAWYQQKPGKAPKLLIYSASSLYSGVPSRFSGSRSGTDFTLTISSLQPEDFATYYCQQYGSYLYTFGQGTKVEIK
In test [3], B10 displayed a Kd of 206 nM. Also, in test [4], the binding result was “no binding”.

B11: VH W100aL (antibody, V domains shown)
VH: EVQLVESGGGLVQPGGSLRLSCAASGFNIYYNYIHWVRQAPGKGLEWVAEFSPYSGSTYYADSVKGRFTISADTSKNTAYLQMNSLRAEDTAVYYCARSAAIVDLYDYFKGFDYWGQGTLVTVSS
VL: DIQMTQSPSSLSASVGDRVTITCRASQSVSSAVAWYQQKPGKAPKLLIYSASSLYSGVPSRFSGSRSGTDFTLTISSLQPEDFATYYCQQYGSYLYTFGQGTKVEIK
Consider B11, for which the Kd in test [1] and in test [2] was 5.24 nM in each case.

B12: VH W100aA (antibody, V domains shown)
VH: EVQLVESGGGLVQPGGSLRLSCAASGFNIYYNYIHWVRQAPGKGLEWVAEFSPYSGSTYYADSVKGRFTISADTSKNTAYLQMNSLRAEDTAVYYCARSAAIVDAYDYFKGFDYWGQGTLVTVSS
VL: DIQMTQSPSSLSASVGDRVTITCRASQSVSSAVAWYQQKPGKAPKLLIYSASSLYSGVPSRFSGSRSGTDFTLTISSLQPEDFATYYCQQYGSYLYTFGQGTKVEIK
Take B12: the results for the Kd in test [1] and in test [3] were 16.3 nM and 11 nM, respectively.

Source of the values: patent publication US20260317437 (published 2026).
